The DeepSol protein solubility set

Assay: soluble on expression in E. coli; label from the status in PepcDB or PDB records

Row | Sequence | soluble on expression in E. coli
1 | MGSDKIHHHHHHMPSFKTYPLESIGYDEALRKQFRLVDEITRHFKGSEFLSRGDLGVVPGLNRPRYTKRVEEILAAYFHAEAAMLVRGAGTAAIRMALHSYLTAGQTLLVHDAPIYPTTQTSIEMMSLRTIRADFNDLNHQQLPESPDGILVQYTRQKPDDSYDMAKVLAFFKQRYPSVPIVTDDNYAVMKVHKIGVELGASLSCFSTFKLLGPEGIGCIVGDKSAIQKLRSANYSGGSQVQGHEAIDVLRGLTYAPVALAAQANVVTELVERLNGNEIPGISEAYVANAQSKVLLVEFNQPIAEKVLKYTNDLGAAPNPVGAESKYEIAPMFYRVSGTFKKFDPNLLKTTIRINPYRCGADTIMRILAESVEKVMA | not soluble
2 | MGSDKIHHHHHHNSDVPENTHLVSKEVQAAFNAKYPQAKDVEWELKGDYAVADFYWDGGEHSAWFNPLSAAWYMTETDVRYENLPEPVLAAHKAGKYADWRVDDVDKLTREGMETLYVIEVEKGESELDLFYSSTGILVKTVVDTGHEEDYDDYLPQPDANGIIAIVKQKYPNATIVEIEREKGLQEVTILDENKEKEVYFNERNEWMGTSWDVQVANLPEAVKKSVMEKYSDYVIDDADYVVTPDNEWYILDLENKQIDKELKVKVDKDGVWL | not soluble
3 | SLALSSPILKEILIEAPSYAPNSFTFDSTNKGFYTSVQDGRVMKYEGPNSGFVDFAYASPYWNKAFCENSTDAEKRPLCGRTYDISYNLQNNQMYIVDCYYHLSVVGSEGGHATQLATSVDGVPFKWLYAVTVDQRTGIVYFTDVSTLYDDRGVQQIMDTSDKTGRLMKYDPSTKETTLLMKELHVPGGAEVSADSSFVLVAEFLSHQIVKYWLEGPKKGTAEVLVKIPNPGNIKRNADGHFWVSSSEELDGNMHGRVDPKGIKFDEFGNILEVIPLPPPFAGEHFEQIQEHDGLLYIGTLFHGSVGILVYDKKGNSFVSSH | soluble
4 | MSLTQIENSQYRKHKQKQQHLQHSLTGESKTAIVVFSRSGNTATLSEHIAHKTNGHVYEIFAKSYALGIPGWINALKDARSNVAEIVPQHIDLSSYDTVYLGSPIWLYSPAPPFWQFVKDNDLTNKRVILFNSFNSKFEQHFIDEFAALARAKGATSFEHQYVKRGRMGDQLSTDEMLAAFDHLNPNEGHHHHHH | soluble
5 | MAENDGETIVPDEQCNLTASTPMKSSGLEQVESPKERKTSMVECDDEGNPSSGTPDESPKQLTPHSIPPRRRRSPRRPEVSASRLPLKVLNQIFQYLPLKDLRSAMLTCHSWNNALSMEDSDIWQYLLGKKLPEAAVSDPFLLAELGSAKKKLRAWYFAWNTSDISRNNYIRTNGFTVHRQPVAQSTDGVRGKRGISKGVHAFDITWDGPLGTVAVVGIATKHAALHCVGYVALLGSDDQSWGWNLVDNVLMHNGAQLGVYPKMNNPPKYEVGDKIRLIIDCDTHVAYFERNSEFLGIAFNHIPPLRLYPAVCAVYGNTEVTMVYVGSPQMG | not soluble
6 | MHIPENLYVVGTMNIADRSLALVDLALRRRFAFVGLEPRLGQVWRDWVVKECAVDPGLVADIERRIAELNDQIAADARLGKQFRIGHSYVTPAHRLEAGDTKKWFLQVVETEIGPLLDEYWFDAPDEAQKAIARLTQGLEHHHHHH | not soluble
7 | MTLSRVSEMALSPDGKTAVYAVSFPDVKTNKATRELFTVNLDGSGRKQITDTESNEYAPAWMADGKRIAFMSNEGGSMQLWVMNADGTERRQLSNIEGGITGFLFSPDEKQVLFTKDIKFGKRTKDIYPDLDKATGRIITDLMYKHWDEWVETIPHPFIANATDGMITTGKDIMEGEPYEAPMKPWSGIEDFSWSPDGQNIAYASRKKTGMAYSLSTNSDIYIYNLASGRTHNISEGMMGYDTYPKFSPDGKSIAWISMERDGYESDLKRLFVADLATGKRTHVNPTFDYNVDMIQWAPDSKGIYFLACKEAETNLWEITLKTGKIRQITQGQHDYADFSVRNDVMLAKRHSFELPDDLYRVNLKNGAAQAVTAENKVILDRLTPITCEKRWMKTTDGGNMLTWVVLPPNFDKNKKYPAILYCQGGPQNTVSQFWSFRWNLRLMAEQGYIVIAPNRHGVPGFGQKWNEQISGDYGGQNMRDYLTAVDEMKKEPYVDGDRIGAVGASYGGFSVYWLAGHHDKRFAAFIAHAGIFNLEMQYATTEEMWFANWDIGGPFWEKDNVVAQRTYATSPHKFVQNWDTPILMIHGELDFRILASQAMAAFDAAQLRGVPSEMLIYPDENHWVLQPQNALLFHRTFFGWLDRWLKK | not soluble
8 | MLEFFDEDFDNMALVEGALELNKSVNPETNVHWAKQELERLYQEAEATLIHETDEEQRFDSFLRLFFHEWGFKGDDQEYFISDNSFIDKVLERKKGIPVSLGAILLYLGNRLGFPMKGVTFPTQFLIKVDWMHKTPDYINPFNGEYVGEKILQAWLIGQEGPLAQLKPEHFDEADNPTVIGRWLALIKSAMLREERYTLALRCTNLALTFVPDDPYEIRDRGFIFQQLECHQVAVSDFQYFIDQCPDDPASELLKSQVNAMSEKHVTLHLEHHHHHH | soluble
9 | SSPEYAMEGIFSVKSDVFSFGVLVLEIVSGKRNRGFHNSGQDNNLLGYTWENWKEGKGLEIVDSIIVDSSSSMSLFQPHEVLRCIQIGLLCVQERAEDRPKMSSVIVPFCTR | soluble
10 | MNEDNSQNSEGPSRKSFFERLSQLFQGEPKDRQELVDVIRDSEVNDLIDHDTRDMLEGVMEIAEMRVRDIMIPRSQMVTIDRTHNLDALVAIMTDAQHSRYPVISEDKDHVEGILLAKDLLKYLGSNCAPFNIQEVIRPAVVVPESKRVDRLLKEFREERYHMAIVVDEFGGVSGLVTIEDILEEIVGDIEDEFDDEEQKDIRQLSKHTFSVKALTTIEDFNHTFGTKFSDEEVDTVGGLVMTAFGHLPARGEVVDIAGYNFKVTAADSRRVVALQVTVPDLEALSHVAEE | not soluble
11 | NEPFHLATERNRVAVMSSGGKESLTTFGMLREIGADVFPVFFNESGGHWKTAKIAYDYMKKNYSNVHKVWSNVDRFYSFMNGHMPMLDQKEIRKTADSYPVQ | not soluble
12 | CGGCGEDVVGDGAGVVALDRVFHVGCFVCSTCRAQLRGQHFYAVERRAYCEGCYVATLE | soluble
13 | MGSDKIHHHHHHMFSEGENVAKATIPLALESAEKNLETSNENEKARRSSSDTAISVRGISKCYQIYDAPRDRLKQFIIPRLRLARQQSRQYFREFWALKGISFEVRKGETVGIIGRNGSGKSTLLQIICGTLTPTAGSVETRGRIAALLELGSGFNPEFTGRENIYMNGAVLGLTREEIDDRFDSIVSFADIGQFIDQPVKTYSSGMSVRLAFAVQAQVDPDILIVDEALSVGDVRFQAKCFARLQQLKDNGTSVLLVTHSSEQIVTHCSSALLLNDGMQFEIGEPRHVVNRYLDLLFGKERRNPDSPQAQPGDIFQEDKGYAESAYQLSTDSDVFQTRNGYNTHEYRWGDGTASILDFYLAANGEPYPSAITVGQTVTLAVSIKFHSDMWRPILGITIKTKDGVTISGTNSEMADLLDLQALVKKGAILVGKCSFQCRLGPGDYFVSLGLATRENDEIIPHDRRYDSIHFIVEPHNKFHGLADLALDLSISHIVESNQI | not soluble
14 | MGSDKIHHHHHHMNHYVEGKLLIIGGAEDKKGECKILKRFIQEAGGRESRVVVLTAATEMPEQVGSEYKELFENLGAAEVQVLDIAERVSANRESISQELQKATGIFFTGGDQLRITGILGGTRLGRTLHNLYQRGVIIAGTSAGASVMSDTMIVGGEAGTPKKDTLTMAPGLGLLHSVVVDQHFAQRGRIGRLLTAIAQNPYVLGVGIDEDTSILVYSDGHFTVVGSQTVTVVDASPTMASNVSEISPGQALVLTPVLMHILSDGYRFDLKRRAASLNETPSGG | not soluble
15 | MSLTTNRTRKAGADSEISDLLKTQSELHGRIAAMAETLGTRQTEMSQTLNQRLDGMSQRLGETLTEQTRSTHENLSRLQERLAVIDAAQGNIQDLAKDVVGLQAILSNKQTRGAFGQARMETLIADALPAGAFQLQPTLSNGYRPDCIIKMPNNAPALVIDAKFPLEAWNAIKADETPETKRAAVQQFRRDMEVHIRDVAEKYLIRGETQDTAFIFVPSESIFADIHQHFEYLVQRAHRARVVIVSPSLLMLSVQVIQSVLKDQRMREQAHLIQGEVALLMDDVRRLDDRTRKLQAHFGLAQKDVDMMLISSDKVLARGQKIEGLDFSPTEKEASHGEIEQTRRFAENRAGAAKLRVVDDEEGHHHHHH | soluble
